Experimental data reported in PMC4053514, “Structural Diversity in the Dandelion (Taraxacum officinale) Polyphenol Oxidase Family Results in Different Responses to Model Substrates” (PLoS ONE, 2014).
Like-named read-outs stand apart in the source and are kept apart here. Blank lines part the entries; values can stand above or below the molecule they belong to.

Legend:
Test in all cases: spectrophotometric quinone formation, Michaelis-Menten fit
Type in all cases: biochemical, Taraxacum officinale
PPO-1 = tested on: T1, PPO-1; details: 50 mM acetate-phosphate, optimal pH (5.5), 25 °C, optimal SDS concentration as activator, O2 co-substrate
T1 construct: mature protein without transit peptide, N-terminal Strep2 tag with enterokinase site spacer; E. coli Rosetta2 (DE3)
Source text: spectrophotometric quinone formation, Michaelis-Menten fit on PPO-1

[1] = substrate: NCCc1ccc(O)c(O)c1; details: 50 mM acetate-phosphate, optimal pH (6.0), 25 °C, optimal SDS concentration as activator, O2 co-substrate
Source text: spectrophotometric quinone formation, Michaelis-Menten fit on PPO-2

[2] = substrate: NCCc1ccc(O)c(O)c1; details: 50 mM acetate-phosphate, optimal pH (5.0), 25 °C, optimal SDS concentration as activator, O2 co-substrate
Source text: spectrophotometric quinone formation, Michaelis-Menten fit on PPO-7

[3] = substrate: NCCc1ccc(O)c(O)c1; details: 50 mM acetate-phosphate, optimal pH (5.0), 25 °C, optimal SDS concentration as activator, O2 co-substrate; remark: listed apart in the source
Source text: spectrophotometric quinone formation, Michaelis-Menten fit on PPO-6

Molecule: Oc1ccccc1O [catechol, benzene-1,2-diol]
- Km (PPO-1; read-out: substrate / CAT): 1.19 ± 0.51 mM

Molecule: NCCc1ccc(O)c(O)c1 [dopamine, 4-(2-aminoethyl)benzene-1,2-diol]
- Km (PPO-1; read-out: substrate / DA): 0.78 ± 0.14 mM

- Km (PPO-1; read-out: substrate / Dopac): 4.95 ± 1.67 mM
Molecule: O=C(O)Cc1ccc(O)c(O)c1 [dihydroxyphenylacetic acid, 2-(3,4-dihydroxyphenyl)acetic acid]

- Km (PPO-1; read-out: substrate / L-Dopa): 8.07 ± 2.14 mM
Molecule: N[C@@H](Cc1ccc(O)c(O)c1)C(=O)O [dihydroxyphenylalanine, (S)-2-amino-3-(3,4-dihydroxyphenyl)propanoic acid]

- Km (PPO-1; read-out: substrate / 4MC): 1.06 ± 0.18 mM
Molecule: Cc1ccc(O)c(O)c1 [4-methylcatechol, 4-methylbenzene-1,2-diol]

B1: PPO-2 (Taraxacum officinale) (protein)
chain: DPIMAPDLTKCGPADLPQGAVATNCCPPFTKNIIDFKLPPPSTNLRVRPAAHLANKDYIAKFNKAIELMKALPDDDPRSFKQQAAVHCAYCDGAYDQVGFPDLDLQVHNSWLFLPFHRHYLYFFEKICGKLINDPNFAIPFWNWDTPDGMTIPAIYANKNSQLYDALRDGKHQPPSLVDLDFNGEDENLSKSKQTSTNLTIMYRQMVSSSKTASLFMGSPYRAGDEANPGGGSLESIPHGPVHIWTGDRNQPNGEDMGNFYSAARDPIFYAHHANIDRMWSVWKTLGGRRNDFTDKDWLDSAFLFYDENAELVRVKVRDALDSKKLGYVYQDVGIPWLETKPEPRLKRALSKIKKKLAVARADEHIPFAKDVFPATLDKVIKVLVPRPKKSRSKKQKDAEEEILVIEGIEVKRDEFVKFDVFVNDEDDGMRATADKTEFAGSFVNVPHKHKHGKSVKTRLRLGISELLDDLGADDDDNVLVTLVPKNKGDEVSIKGMKIEYED
notes: mature protein without transit peptide, N-terminal Strep2 tag with enterokinase site spacer; E. coli Rosetta2 (DE3)
- Km [1]: 0.94 ± 0.31 mM
- kcat [1]: 59.5 ± 13.7 s⁻¹

B2: PPO-7 (Taraxacum officinale) (protein)
chain: APITTPDISTCIPSESGFNTEDSVRSNQCCPPATSSTIPKEFVFPKDTTTRIRPAAHRATPEYVAKYKAAIQAMRDLPDDHPHSFVSQAKIHCAYCNGGYTQVASGFPDKMLQVHNSWLFFPFHRWYLYFYERILGKLIDDPTFALPYWNWDHPAGMTLPAFFETDGKRNPVFDAYRNVTHVTPAAIVDLDYNGSDSGAPCLQQINTNLTAMYKQMVSNAADPLSFFGGVYKAGDDPFGNGDPSVGSVEAGCHTAVHRWVGNPRMMNTEDMGNFYSAGYDPAFYVHHANVDRMWKVWKDLGIPGHSEPTDPDWLNASFVFYDENEQLVRVYNKDCVNLENLKYDYELSPLPWLKNRPVPHTPKPVDNAAKPAIKLPEVKFPVKLDKTVKVYVKRPVKKRGKAEKDKVSEQLVLKGIKFNSTKFVKVDVFVNDQDDAPAILPSESEFVGSFAQLPHGRSGRGRGRGHGHSELMTSAARFGLTELLEDIGAEDDEYILVTLVPKAGSEDVTVEEITVELVPVNP
notes: mature protein without transit peptide, N-terminal Strep2 tag with enterokinase site spacer; E. coli Rosetta2 (DE3); tetramer
- Km [2]: 4.49 ± 2.26 mM
- kcat [2]: 22.6 ± 2.5 s⁻¹

B3: PPO-6 (Taraxacum officinale) (protein)
chain: DPITTPDISTCVASTKGFQPKNAVRTNACCPPTLSKTVKEFVFPNDRATRIRPAAHRASPEYIAKYKAAIQKMRDLEDDDPHSFVSQAKIHCAYCNGGFTQDKHPDKELQIHNSWLFFPFHRWYLYFYERILGKLIDDPTFAIPYWNWDNPAGMSLPDFFEEGGKANPAFDAYRNSSHLAPAIADLDYDGTEKNYTCIKQLSVNLGAMNKQMIRNAGDWKSFFGGEYRAGSDPIGNKDPSVGSVEAGCHTAIHRWVGNSRLPNGEDMGNFYSAGYDPVFYVHHANVDRMWKVWKDLGIRGHIEPPDNDWRNASYVFYDENKELVRVYNKDCVRLEKLKYDYQFAPIPWKNSRPVARTKKSNIALKSVGTVKQAQDSKFPLKLDKTTKVLVKRPATNRSKEDKENANEVLLIKGVVFNGEKFVKFDVFVNDKDDVTASTAEESEFAGSFAQLPHNHGDKMLMTSSARFGLTELLEDIDAEDDESILVTLVPKVGCEEVTIGEIKVELVPIEE
notes: mature protein without transit peptide, N-terminal Strep2 tag with enterokinase site spacer; E. coli Rosetta2 (DE3); disulfide-linked tetramer
- Km [3]: 5.62 ± 1.14 mM
- kcat [3]: 61.7 ± 10.6 s⁻¹
